From PMC3592468

Substrate: C[C@@H](O)[C@H](N)C(=O)O
Experiment: purified protein
Assay type: biochemical, Saccharomyces cerevisiae
Conditions: 2.5 mM ATP, 2 mM PPi, 10 mM MgCl2, pH 7.5, 30 °C, no tRNA

B1: ScThrRS (Saccharomyces cerevisiae S288C) (protein)
chain: MSASEAGVTEQVKKLSVKDSSNDAVKPNKKENKKSKQQSLYLDPEPTFIEERIEMFDRLQKEYNDKVASMPRVPLKIVLKDGAVKEATSWETTPMDIAKGISKSLADRLCISKVNGQLWDLDRPFEGEANEEIKLELLDFESDEGKKVFWHSSAHVLGESCECHLGAHICLGPPTDDGFFYEMAVRDSMKDISESPERTVSQADFPGLEGVAKNVIKQKQKFERLVMSKEDLLKMFHYSKYKTYLVQTKVPDGGATTVYRCGKLIDLCVGPHIPHTGRIKAFKLLKNSSCYFLGDATNDSLQRVYGISFPDKKLMDAHLKFLAEASMRDHRKIGKEQELFLFNEMSPGSCFWLPHGTRIYNTLVDLLRTEYRKRGYEEVITPNMYNSKLWETSGHWANYKENMFTFEVEKETFGLKPMNCPGHCLMFKSRERSYRELPWRVADFGVIHRNEFSGALSGLTRVRRFQQDDAHIFCTHDQIESEIENIFNFLQYIYGVFGFEFKMELSTRPEKYVGKIETWDAAESKLESALKKWGGNWEINAGDGAFYGPKIDIMISDALRRWHQCATIQLDFQLPNRFELEFKSKDQDSESYERPVMIHRAILGSVERMTAILTEHFAGKWPFWLSPRQVLVVPVGVKYQGYAEDVRNKLHDAGFYADVDLTGNTLQKKVRNGQMLKYNFIFIVGEQEMNEKSVNIRNRDVMEQQGKNATVSVEEVLKQLRNLKDEKRGDNVLA
Km: 210 ± 20 µM | kcat: 1.72 ± 0.21 s⁻¹ | kcat/Km: 8190 M⁻¹ s⁻¹
